In the test the target is T1, Nectin-4 extracellular domain Fc fusion recombinant protein (Nec4-VCC) (human, UniProt Q96NY8 32-349).
T1 construct: extracellular domain; also called Nectin-4-VCC-Fc; not shown: Fc part
T1 sequence (looked up): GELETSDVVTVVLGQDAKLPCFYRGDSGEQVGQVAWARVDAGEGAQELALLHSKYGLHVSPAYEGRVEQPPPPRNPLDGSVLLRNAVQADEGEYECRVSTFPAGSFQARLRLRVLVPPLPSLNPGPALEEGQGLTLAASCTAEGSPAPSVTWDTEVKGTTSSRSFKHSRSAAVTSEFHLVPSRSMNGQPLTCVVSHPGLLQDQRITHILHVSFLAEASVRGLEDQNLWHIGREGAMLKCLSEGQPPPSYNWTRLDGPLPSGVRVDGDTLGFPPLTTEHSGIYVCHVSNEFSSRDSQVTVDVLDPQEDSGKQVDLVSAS
Put plainly: statement in the legend of the competition ELISA on Nec4-VCC. For orientation: In an ELISA, binding on a coated surface is turned into a signal by an enzyme label.

B1: Enfortumab (HA22) (antibody, V domains shown)
VH: EVQLVESGGGLVQPGGSLRLSCAASGFTFSSYNMNWVRQAPGKGLEWVSYISSSSSTIYYADSVKGRFTISRDNAKNSLSLQMNSLRDEDTAVYYCARAYYYGMDVWGQGTTVTVSS
VL: DIQMTQSPSSVSASVGDRVTITCRASQGISGWLAWYQQKPGKAPKFLIYAASTLQSGVPSRFSGSGSGTDFTLTISSLQPEDFATYYCQQANSFPPTFGGGTKVEIK
notes: also called HA22 mAb
In the case of B1, the binding result is listed as “binds”.

These data come from patent EP4086284A1 (Emergence Therapeutics AG, dated 2022).
